Assay: Degradation of 20K OGF-PEG ester conjugate and release of OGF in human plasma at 37 °C
Assay type: in vitro ADME
Details: incubated in human plasma at 37 °C, 0.5 to 24 hours; reversed-phase HPLC or size exclusion chromatography
Description: Experiments for degradation of the 20K Tyr-gly-gly-phe-met-C(O)—O-mPEG conjugate (20K OGF-C(O)—O-mPEG or 20K OGF—PEG ester) and the release of OGF were conducted in human plasma at 37 ° C. The OGF—PEG conjugate containing hydrolysable ester linkages was incubated in human plasma at 37° C. for various periods of time, ranging from 0.5 to 24 hours. An aliquot plasma sample was withdrawn and treated with acetonitrile or acetonitrile/methanol organic solvent, vortexed, centrifuged, and concentrated. The solution residue was then analyzed by reversed-phase HPLC chromatography or size exclusion chromatography to check the amount of OGF-PEG and the released amount of OGF at various time points. The plasma T1/2 for 20K OGF-C(O)—O-mPEG was about 5 hours.

With “20K Tyr-Gly-Gly-Phe-Met-C(O)O-mPEG [20K OGF-C(O)—O-mPEG]” as the substance, how does the “plasma T1/2” value read?
The value was “about 5 hours”.

From US20170290892A1, “POLYMERIC […]” (PEG BIOSCIENCES, INC., priority 2014, published 2017)
